Each binder was assayed against T1, HLA-A*02:01 (human) (assay: UV-ligand exchange, anti-b2m ELISA; grade of peptide exchange yield (>10% = +; >20% = ++; >50 = +++; >75% = ++++)).
T1 construct: Peptide-receptive HLA-A*02:01 monomer obtained by UV cleavage of a UV-sensitive ligand; captured on streptavidin plates; also called peptide-receptive MHC molecules; MHC class I
Text: Candidate peptides for T cell based therapies according to the present invention were further tested for their MHC binding capacity (affinity). The individual peptide-MHC complexes were produced by UV-ligand exchange, where a UV-sensitive peptide is cleaved upon UV-irradiation, and exchanged with the peptide of interest as analyzed. Only peptide candidates that can effectively bind and stabilize the peptide-receptive MHC molecules prevent dissociation of the MHC complexes. To determine the yield of the exchange reaction, an ELISA was performed based on the detection of the light chain (β2m) of stabilized MHC complexes. The assay was performed as generally described in Rodenko et al. (Rodenko et al., 2006).
96 well MAXISorp plates (NUNC) were coated over night with 2 ug/ml streptavidin in PBS at room temperature, washed 4× and blocked for 1 h at 37° C. in 2% BSA containing blocking buffer. Refolded HLA-A*02:01/MLA-001 monomers served as standards, covering the range of 15-500 ng/ml. Peptide-MHC monomers of the UV-exchange reaction were diluted 100-fold in blocking buffer. Samples were incubated for 1 h at 37° C., washed four times, incubated with 2 ug/ml HRP conjugated anti-β2m for 1 h at 37° C., washed again and detected with TMB solution that is stopped with […]. Absorption was measured at 450 nm. Candidate peptides that show a high exchange yield (preferably higher than 50%, most preferred higher than 75%) are generally preferred for a generation and production of antibodies or fragments thereof, and/or T cell receptors or fragments thereof, as they show sufficient avidity to the MHC molecules and prevent dissociation of the MHC complexes.

Row | Binder | peptide exchange yield
1 | YLLDYPNNL | 50 to 75%
2 | ILDINDNPPV | 50 to 75%
3 | VLDINDNPPV | 50 to 75%
4 | VLFSSPPVI | > 75%
5 | LLIAINPQV | > 75%
6 | SMLNNIINL | 50 to 75%
7 | RLNGEGVGQVNISV | 20 to 50%
8 | AILGFALSEA | > 75%
9 | KLPEPCPSTV | 50 to 75%
10 | YLWEAHTNI | > 75%
11 | GLISSIEAQL | > 75%
12 | RIMEGIPTV | > 75%
13 | TLWPATPPKA | 50 to 75%
14 | YLYPDLSRL | > 75%
15 | YLAEPQWAV | > 75%
16 | ALAKLLPLL | > 75%
17 | TLVDENQSWYL (also called TLVDENQSWYL) […] | 50 to 75%
18 | VCPPGGIQEV | 50 to 75%
19 | ALYTSGHLL | > 75%
20 | QLLEGELETL | 50 to 75%
21 | ALDTFSVQV | > 75%
22 | SLVSYLDKV | > 75%
23 | SIWPALTQV | > 75%
24 | GLWSSIFSL | > 75%
25 | AVDPVSGSLYV | > 75%
26 | RLVEVGGDVQL | > 75%
27 | SLPESGLLSV | 50 to 75%

Row | Binder | peptide exchange yield
28 | LLPEDDTRDNV | 50 to 75%
29 | FLQLETEQV | > 75%
30 | GLIEWLENTV | > 75%
31 | KLLPGVQYV | > 75%
32 | ILLEDVFQL | > 75%
33 | IQDAEGAIHEV | > 75%
34 | LLTPLNLQI | 50 to 75%
35 | RLSGEGVGPV | 50 to 75%
36 | FLHEPFSSV | > 75%
37 | RLLPDLDEV | > 75%
38 | TLASLGYAVV | 50 to 75%
39 | TLTDEINFL | > 75%
40 | LLFTGLVSGV | 50 to 75%
41 | ALSNVVHKV | > 75%
42 | AIYEGVGWNV | > 75%
43 | YLINEIDRIRA | > 75%
44 | ALVGDVILTV | > 75%
45 | SLCPPGGIQEV | > 75%
46 | GLAGGFGGPGFPV | > 75%
47 | ALKDSVQRA | 50 to 75%
48 | AVLGGKLYV | > 75%
49 | SLYGLGGSKRISI | 50 to 75%
50 | PVCPPGGIQEV | 50 to 75%
51 | HLATVKLLV | > 75%
52 | GLGDDSFPI | > 75%
53 | FLIPSIIFA | > 75%
54 | VLNVGVAEV | 50 to 75%
